Experiments:
Experiment in all cases: holdup assay
Design in all cases: key: below the threshold = too weak to quantify, mostly under pKd 3.1 to 4
MPDZ_12, O75970 = biological target: T1, MPDZ_12, O75970
T1 sequence (O75970 1857-1958, limits assumed, looked up): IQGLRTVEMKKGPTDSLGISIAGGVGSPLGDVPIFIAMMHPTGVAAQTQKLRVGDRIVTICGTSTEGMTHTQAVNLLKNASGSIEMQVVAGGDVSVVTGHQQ

GORASP2, Q9H8Y8 = biological target: GORASP2, Q9H8Y8
APBA3_1, O96018 = biological target: T2, APBA3_1, O96018
T2 sequence (O96018 389-490, limits assumed, looked up): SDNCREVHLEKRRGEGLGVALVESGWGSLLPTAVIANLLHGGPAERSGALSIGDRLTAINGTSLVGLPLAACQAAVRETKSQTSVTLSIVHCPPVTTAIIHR

MAGI2_2, Q86UL8 = biological target: MAGI2_2, Q86UL8
Sequence of MAGI2_2, Q86UL8 (Q86UL8 410-522): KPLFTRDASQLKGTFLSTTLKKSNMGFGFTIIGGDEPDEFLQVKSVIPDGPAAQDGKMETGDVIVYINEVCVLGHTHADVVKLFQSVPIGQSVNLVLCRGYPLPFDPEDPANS

FRMPD3, Q5JV73 = biological target: FRMPD3, Q5JV73
Sequence of FRMPD3, Q5JV73 (Q5JV73 12-100): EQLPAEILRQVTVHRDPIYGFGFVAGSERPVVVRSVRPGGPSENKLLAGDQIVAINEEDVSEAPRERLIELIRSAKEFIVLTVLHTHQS

TJP1_3, Q07157 = biological target: TJP1_3, Q07157
Sequence of TJP1_3, Q07157 (Q07157 416-512): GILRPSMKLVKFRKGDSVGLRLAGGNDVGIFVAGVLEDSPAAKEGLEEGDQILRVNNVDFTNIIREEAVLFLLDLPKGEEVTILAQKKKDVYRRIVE

DFNB31_3, Q9P202 = biological target: T3, DFNB31_3, Q9P202
T3 sequence (Q9P202 811-907, limits assumed, looked up): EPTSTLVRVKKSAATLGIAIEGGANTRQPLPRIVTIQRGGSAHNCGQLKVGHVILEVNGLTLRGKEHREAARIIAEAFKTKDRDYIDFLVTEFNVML

LNX1_2, Q8TBB1 = biological target: LNX1_2, Q8TBB1
Sequence of LNX1_2, Q8TBB1 (Q8TBB1 371-470): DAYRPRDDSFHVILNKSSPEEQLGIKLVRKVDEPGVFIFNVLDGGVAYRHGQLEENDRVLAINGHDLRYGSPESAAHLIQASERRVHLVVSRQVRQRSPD

GRIP2_6, Q9C0E4 = biological target: GRIP2_6, Q9C0E4
Sequence of GRIP2_6, Q9C0E4 (Q9C0E4 648-740): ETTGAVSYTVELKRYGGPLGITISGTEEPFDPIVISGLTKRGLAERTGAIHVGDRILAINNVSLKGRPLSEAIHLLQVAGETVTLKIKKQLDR

IL16_3, Q14005 = biological target: IL16_3, Q14005
Sequence of IL16_3, Q14005 (Q14005 1107-1207): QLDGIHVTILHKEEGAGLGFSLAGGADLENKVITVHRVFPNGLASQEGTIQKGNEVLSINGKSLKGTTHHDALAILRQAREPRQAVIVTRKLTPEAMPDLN

DLG3_2, Q92796 = biological target: T4, DLG3_2, Q92796
T4 sequence (Q92796 221-321, limits assumed, looked up): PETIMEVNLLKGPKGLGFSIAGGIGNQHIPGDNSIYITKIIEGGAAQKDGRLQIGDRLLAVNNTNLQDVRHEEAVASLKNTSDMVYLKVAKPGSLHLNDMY

RADIL, Q96JH8 = biological target: T5, RADIL, Q96JH8
T5 sequence (Q96JH8 971-1071, limits assumed, looked up): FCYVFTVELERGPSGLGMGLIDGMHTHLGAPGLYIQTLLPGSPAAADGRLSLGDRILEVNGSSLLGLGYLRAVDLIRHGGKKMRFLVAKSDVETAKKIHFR

GRASP, Q7Z6J2 = biological target: GRASP, Q7Z6J2
Sequence of GRASP, Q7Z6J2 (Q7Z6J2 96-193): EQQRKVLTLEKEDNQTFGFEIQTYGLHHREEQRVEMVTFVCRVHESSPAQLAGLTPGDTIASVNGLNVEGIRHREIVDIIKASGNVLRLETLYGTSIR

Inadl_9, Q8NI35 = biological target: Inadl_9, Q8NI35
Sequence of Inadl_9, Q8NI35 (Q8NI35 1530-1615): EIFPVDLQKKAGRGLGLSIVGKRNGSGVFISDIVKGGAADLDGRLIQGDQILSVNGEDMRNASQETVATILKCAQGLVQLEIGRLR

DLG5_1, Q8TDM6 = biological target: DLG5_1, Q8TDM6
Sequence of DLG5_1, Q8TDM6 (Q8TDM6 617-713): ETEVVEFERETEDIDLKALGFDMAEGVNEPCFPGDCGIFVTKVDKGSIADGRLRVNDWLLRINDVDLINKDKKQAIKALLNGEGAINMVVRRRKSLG

MPP2, Q14168 = biological target: T6, MPP2, Q14168
T6 sequence (Q14168 180-250, limits assumed, looked up): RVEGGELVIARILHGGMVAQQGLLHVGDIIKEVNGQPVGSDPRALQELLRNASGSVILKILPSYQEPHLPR

HTRA3, P83110 = biological target: T7, HTRA3, P83110
T7 sequence (P83110 354-453, limits assumed, looked up): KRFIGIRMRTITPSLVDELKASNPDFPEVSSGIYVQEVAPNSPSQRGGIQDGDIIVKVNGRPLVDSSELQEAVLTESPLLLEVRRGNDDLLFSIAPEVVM

NOS1, P29475 = biological target: NOS1, P29475
Sequence of NOS1, P29475 (P29475 9-101): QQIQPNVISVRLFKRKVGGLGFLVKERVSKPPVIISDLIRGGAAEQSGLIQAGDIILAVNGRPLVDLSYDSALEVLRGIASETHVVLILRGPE

GRIP1_4, Q9Y3R0 = biological target: T8, GRIP1_4, Q9Y3R0
T8 sequence (Q9Y3R0 467-571, limits assumed, looked up): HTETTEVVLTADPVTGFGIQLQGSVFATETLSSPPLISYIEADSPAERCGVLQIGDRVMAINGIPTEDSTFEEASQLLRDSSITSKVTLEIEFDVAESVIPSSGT

DFNB31_1, Q9P202 = biological target: T9, DFNB31_1, Q9P202
T9 sequence (Q9P202 135-233, limits assumed, looked up): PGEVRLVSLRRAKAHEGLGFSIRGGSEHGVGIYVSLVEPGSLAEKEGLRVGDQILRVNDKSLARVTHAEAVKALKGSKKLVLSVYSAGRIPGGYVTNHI

TIAM2, Q8IVF5 = biological target: T10, TIAM2, Q8IVF5
T10 sequence (Q8IVF5 885-986, limits assumed, looked up): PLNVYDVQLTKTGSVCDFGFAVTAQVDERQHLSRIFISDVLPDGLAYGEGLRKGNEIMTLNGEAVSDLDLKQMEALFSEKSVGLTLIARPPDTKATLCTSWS

IL16_4, Q14005 = biological target: IL16_4, Q14005
Sequence of IL16_4, Q14005 (Q14005 1229-1329): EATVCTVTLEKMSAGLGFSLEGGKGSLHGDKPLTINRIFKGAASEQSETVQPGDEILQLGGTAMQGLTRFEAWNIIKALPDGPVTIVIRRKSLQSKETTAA

GRIP2_4, Q9C0E4 = biological target: GRIP2_4, Q9C0E4
Sequence of GRIP2_4, Q9C0E4 (Q9C0E4 446-548): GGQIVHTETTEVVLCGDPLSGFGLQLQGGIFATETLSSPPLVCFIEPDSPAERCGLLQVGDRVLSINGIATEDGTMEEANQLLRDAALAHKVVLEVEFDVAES

PICK1, Q9NRD5 = biological target: PICK1, Q9NRD5
Sequence of PICK1, Q9NRD5 (Q9NRD5 17-115): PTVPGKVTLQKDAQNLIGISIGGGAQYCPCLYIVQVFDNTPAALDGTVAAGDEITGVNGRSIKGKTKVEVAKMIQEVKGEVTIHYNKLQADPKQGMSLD

PDZRN3_1, Q9UPQ7 = biological target: T11, PDZRN3_1, Q9UPQ7
T11 sequence (Q9UPQ7 244-349, limits assumed, looked up): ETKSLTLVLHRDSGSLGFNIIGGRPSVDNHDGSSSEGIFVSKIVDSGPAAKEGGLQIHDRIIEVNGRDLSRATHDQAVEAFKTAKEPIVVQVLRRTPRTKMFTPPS

GRID2IP_2, A4D2P6 = biological target: GRID2IP_2, A4D2P6
Sequence of GRID2IP_2, A4D2P6 (A4D2P6 272-370): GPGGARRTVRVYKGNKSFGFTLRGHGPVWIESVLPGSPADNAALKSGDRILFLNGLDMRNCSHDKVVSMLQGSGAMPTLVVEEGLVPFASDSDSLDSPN

[1] = plain residues with an end cap or a label only (N-terminal biotin on a linker: ttds)
[2] = plain residues with an end cap or a label only (N-terminal biotin on a linker: ahx)

Measured: pKd

NQLAWFDTDL [CTNNB1, P35222]
below the threshold: MPDZ_12, O75970; [1] | GORASP2, Q9H8Y8; [1] | APBA3_1, O96018; [1] | MAGI2_2, Q86UL8; [1] | FRMPD3, Q5JV73; [1] | TJP1_3, Q07157; [1] | DFNB31_3, Q9P202; [1] | LNX1_2, Q8TBB1; [1] | GRIP2_6, Q9C0E4; [1] | IL16_3, Q14005; [1] | DLG3_2, Q92796; [1] | RADIL, Q96JH8; [1] | GRASP, Q7Z6J2; [1] | Inadl_9, Q8NI35; [1] | DLG5_1, Q8TDM6; [1] | MPP2, Q14168; [1] | HTRA3, P83110; [1] | NOS1, P29475; [1] | GRIP1_4, Q9Y3R0; [1] | TIAM2, Q8IVF5; [1] | IL16_4, Q14005; [1] | GRIP2_4, Q9C0E4; [1] | PICK1, Q9NRD5; [1] | PDZRN3_1, Q9UPQ7; [1] | GRID2IP_2, A4D2P6; [1]
4.28: DFNB31_1, Q9P202; [1]

GIFPTLTSPL [SHROOM3, Q8TF72]
below the threshold: MPDZ_12, O75970; [2] | GORASP2, Q9H8Y8; [2] | APBA3_1, O96018; [2] | MAGI2_2, Q86UL8; [2] | FRMPD3, Q5JV73; [2] | TJP1_3, Q07157; [2] | DFNB31_3, Q9P202; [2] | LNX1_2, Q8TBB1; [2] | GRIP2_6, Q9C0E4; [2] | IL16_3, Q14005; [2] | DLG3_2, Q92796; [2] | RADIL, Q96JH8; [2] | Inadl_9, Q8NI35; [2] | DLG5_1, Q8TDM6; [2] | MPP2, Q14168; [2] | HTRA3, P83110; [2] | NOS1, P29475; [2] | GRIP1_4, Q9Y3R0; [2] | DFNB31_1, Q9P202; [2] | TIAM2, Q8IVF5; [2] | IL16_4, Q14005; [2] | GRIP2_4, Q9C0E4; [2] | PICK1, Q9NRD5; [2] | GRID2IP_2, A4D2P6; [2]
3.49: PDZRN3_1, Q9UPQ7; [2]
5.03: GRASP, Q7Z6J2; [2]
